# Results taken from the domain aggregation screens of Martell et al. (2025).
# Assay: soluble fraction after stress (log2 fold change); higher = more stays soluble; pooled small domains, quantitative proteomics
# Conditions: stress: 75 degC
# 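Also: 20 min heating vs room temperature control held 20 min.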
row,Sequence,soluble fraction (log2)
1,HMVDALYGQGARVMRDFSEGSGIVKLDNGETWTGRLSPAASGASLYVGDRVIVTRIDGAIAEVTPP,0.00352
2,HMARDSYNGVQRTISTLLGQGNYDRAYDVAVGARGQMSKQQWSDVAKRIYEVSGIKIDDSVKY,-0.113
3,HMNMGEKIRSLIGQFGVTSEDLKNLSVANLLIRMNQEAGDSKTKGILASLLETVNKAGVGNLTPDALGIK,-0.164
4,HMSLTEEQVDSGLKEIRLALLEADVALPVVKNFITNIKPKAIGQEIIRSTSPGQMIVKIVYDELVSIL,-0.066
5,HMKDESYALGTRLLSHALGKTKLEDLAQEKIDEVVQQSGNKTLEQLLTNIGLGNALSIGIARQLT,0.345
6,HMKNEQESIAQKLYEAALKNDFVTIQEIQSGGYRLRNDDLTHMRESGVQSNTLIAIQKIFGL,0.404
7,HMSGALDTVVGIRMLKLLSTPIEKSKAFQVGIINKDGKKLRDPTSGERQHYTFLNRFVFKVQYALMRS,-0.549
8,HMQLGEEAGDELVAIVRSVINDNDKALADYLAGKSSALKFLLGQVMRQTKGRADHALVQSLLEAELEAL,-0.0341
9,HMKHKHHIIPKHKGGTDHPDNLIELTVEQHAKAHWVEFMLDGREEDYWAWKGLEGVASKKDIIYALSKR,-0.0688
10,HMELSESLENYLVVIYEAHLRNEIARIKDMTASLSVKHTSAIDAIKKLEDLGIVNYEKRGFVKLTQSGIEK,0.00204
11,HMITVPKVINMSETQARQTLDALGLNVTLSATQVMNDKIPYGYVAAQSYSAGKEVPAGTTIELTMSIGL,-2.03
12,HMSQIDLQIGHKIKSKRRKLGISQADMAKKLYISPSYLNLIESGKRKINVDLLLKLSNELGIEMSDIS,-1.97
13,HMKNEQIFIVRPDAEGTRLDQWLAAQMASSEEAPSRMQIQRWIKAGLVEGQGTLNPARRIEAGESYTVKPG,0.0684
14,HMKELLDRIFLHETMRRVSQDATITFSKKVYEVPQKFIGRQVTVQYDPEDLSRVYVKDLNFPEPVMVYPVQ,-1.59
15,HMSETLESYTTRLKQLEEIADSFQGVDKTFAIQAGREIRVMVVPEQISDDDMILLARDISNQIEENLDY,-0.234
16,HMWPDDAIALPTRDGQDVGGAQERTMLAFASGAAGIRTVEEINPDGSITRLRTRYGWPTFETEGARTAAAE,-0.0272
17,HMGVSDDMARGVVRARQFLSDFAAVPLDRMTPAEAVARARQLKSELETDAKHSPWLLDVLSNA,-0.116
18,HMRDLVTYVVQVNGKLRGKLEVSPSTDDNSLKTMALELENVQRALEGLSVKKVIVIPGKMVSIAAG,-0.972
19,HMGNYRVIKWGMQGDDVKLMQQMLINRGYVLSATGKYASRTLKAIMAFQEANGLKADGIVGKRTWNKLL,-2.78
20,HMKSNNPLDHVRVKQRGASWAYYFEKAKVDGKRRRGEGGGYATEQDARMAGVEAYNAYIGGGAK,-0.172
21,HMQNLISSDEAKNIALQHANLTDNQVTFIKVSKDYDDGIHIYEVEFHYNNREYNYDINAINGTILSYEQ,-1.34
22,HMQGQVLQETARKARSQLDSEIPGFNDALYQNLIKSSENYGYKAEEVAQWVDPRAIKVLNDAYQFQQLKAG,-0.172
23,HMSSVGELEVGNIFEGTVNSVRGGKVLLALGNGQMVLAQMDGRVNITPGSSMFFQVKSNDGETVAIRPYTG,-0.247
24,HMLTSIDQMLKLAMPDSDITVSKMNGLILLTGTVKAPEDAAEAERLVQAFSAPPPGQPPVTVVSRLRTA,-0.402
25,HMFYNDLINFDVFRDSRKIGKIENINSRLPQPVFEIMYDSRIVLIPIHEDFIRKIDKVNNIIYLDIPDGLL,-2.99
26,HMHGSSSTVPPVKGLSFEQARLTLAENDLTVEISDSIYDRNARPGTVVESWPRAGSVVKQGRQVYVTVTAF,-0.894

row,Sequence,soluble fraction (log2)
1,HMAEIIVHEINRHLGESDEPVEFPEERREEAVAELLKNFHNDDAFRKMDDGKYEVALDGEAVREAARSLLA,0.175
2,HMKYSELLLEIILQSKEHPTAEQIFIEAKKRNPKIVQATVYNNLKNLLAQGRVIRISNPGQPDRYDNT,-1.83
3,HMVVTMEKIVVNDGGIRIDTYLADKLNISRSKVAKMLENNILVNNVKVKPSYKVTNNDIIEVEEYV,-1.86
4,HMELPVAVPHTELSPEALRGVVESFVLREGTDYGERDVPFEAKVAQVIRQLERGEARIMFDPVTQSVQIVT,0.162
5,HMGDADDLTRIKGIGPKLSKTLNELGIYHFRQIAGWQSDEADWVDDYLSFKGRVMREQWIEQAQKFAS,-0.475
6,HMNSLPFSNFMNEVEAGRVVEVKIQGNNISGVLANGKTFSTYSPNYPELVEKLSSNGVSIVATPQ,0.28
7,HMENFKVFMKAVQEVSPVPVRFDEISSGAKGYYSNTEKEIVIQNGMSESQTMKTGIHEVTHAMLHDRDF,0.234
8,HMRGLIEPLSQRELEVLMLMARGQSNAHIADQLNISENTIKWHGRNIFGKLGVSNRTEAVITSQEMGMLAT,-0.727
9,HMKHAIKEKIRNEYVHGYLNEEGYRVMPTLDELIRKYEVPASSTYRASSKEGWKKQKEAFLEHLRGEIDA,-0.492
10,HMETMSYAEFNAIRIGKAKLMLADPSLKIWEISEAVGYTDTAHFARTFKKLEGMSANEYRNSL,-0.862
11,HMNPTSLTFRSNVKDGKVYVDGIFKGSSDLDFDLPKGRHSIRIEKDGYVPFAKTINLIKALVIDFNMEKA,-2.02
12,HMGQKASEVEKIFVELQQQIIRGDLPPGYRLVESQIAAQFGVSRTPARLAIERLATAGLVAHETNRGATVH,-0.823
13,HMSRVTVDVNPDVLQWAIDKKGKGDIKNKFPKIDEWLNGISKPTIHQLENFAKYVSVPFGYLLLSKPPVE,0.208
14,HMNRKILVLLAGKEQITDNVSVMQSIHRYAFINTATINKAQHEILIEKEEIRQEALTLIHEFLK,-0.97
15,HMSDRESYGRYRNVSLTLSEYESLKNEYPLYADKYIERLSEYMETAGKHYNNHYATILSWLSKDIK,-0.201
16,HMAIRLIKASREFNVGISTIVEFLEKKGHAIDSDPNSKIPDELYQLIEKEFQTEGSVKKAAKQI,-1.81
17,HMSNDRSYLARLQDYYAEHRALPSYASIGALLGLRSKSSVAALVARLKLAGFVESTPDRRLAPTRRFF,-4.01
18,HMQSAKLSYSDFMQKVNAGDVVSVKIQGPKISGVTTGGGKFMTYAPEDPTLVSTLMQKKVEVMAEP,0.139
19,HMQDGVNLENIEQKLSTLGVGKAQYFLQNVGGNKFNAYMALNTDGVEGYQKGSDTLIEIKNVE,0.215
20,HMAASEAESIRILLSEGVDRVHLRKPQSAEADMRRLIEALPPELYPRLTLQDHLHLAGEYGT,-0.0361
21,HMQQISDPQVLRPMAEEVLHQSQKVVQDYKGGNKNAFHALVGQMMKKTQGKGNPQVIGQVLSELLDE,0.98
22,HMDYKYYIVKEPMVVKNLELPVGTRIVYFNTSLFGDSESSRPLKEKNIYQIFFPDDKPLIWGGVPVSLIER,-2.24
23,HMNTSITVPSLKGLSQEAATLKMERLGLHVEVSDTGFVRSLAFGTVLQQSIAPGEKVKPGRLVYITINSD,-2.2
24,HMPVSTLLGDNLRRLRTAKGYTQEAVADAARISVAAYRNYETGRAIPKVNTLLAIARALGVSLNDLVTE,-0.605
25,HMNVNEIREMYPEGTQIVLTEMRGENQMPYGLKGTVKFVDDAGQIHMKWENGSSLALNINEDTFEKVE,0.91
26,HMGKASNEVYEVISSKIRTGEWAPGYKLPSEPTLAEEFGVSRATVREALQELISRGRIKREQGRGTYVLH,-0.0316

row,Sequence,soluble fraction (log2)
1,HMDEFQLTPREQEILGLLVKGYTYKRIASELNLSYATVNRHVSNVYVKLRVHSVNEAVALAVRKGL,-1.39
2,HMGQNYTIVKGDSLWKIAQKQYGDGSQWKKIYDANKDAIESAAKKYGKKSSDSGKWIYPGVSLII,-0.112
3,HMKQEFEMGLPNGVGEQMLAHAIEKFDVKLEHSEFGPKLIGTYEELEKAKVFLYEAIEARLNQLE,0.279
4,HMKNIMRQWIELEPDQGKIRSKLYSLDRVVEETTNEVGMIKLLLEIDEKELNNLVSHNDIRLV,-0.425
5,HMIMQTTSDRINQRMRDLGLQHKDLVAATGASKGTVTNWINGVNNPTGKRLVQLAQALKTTSSWLLTGN,-0.481
6,HMEEFLSFIADILEVDKNTLTLETSQDDVETWDSLMQLRLLGEIEAKYGVMIPMERISTIKKLNDFYQYIK,-1.12
7,HMDVLNPGDKAVTTASWLNFRTGPGMQNKVASVLARNTTVNIIEKSNEWYKVSLANGSTGYVHGMYLSKIT,-1.73
8,HMVGEQISYIPLKFATASEVVKSLTSMFQQQKGIAPIRIVAEERTNAILLLASEADTARVKNLIAMMDKGV,-2.15
9,HMKHVDLDNNERYIYGIIGSTKIHVDEVVEKSGMETKHVMAILTNLELKEAIKGIPGGFYLR,-2.02
10,HMKNIINFIVKEDDNNKRVDMILANHDKSLSRTRVKNLILDSKLKINERIVQDPSIKTKLNDKIELEIVEP,0.631
11,HMGTQIKSPMPGTILDVRVNVGDTVKEGDILMILEAMKMENEILAPVSGKVAAIQVSKGTAVNSGDLLAVL,-0.0689
12,HMIDENILSEEIKHYIETNNYAKDDKLPSERSLASLFNVSRALVRKSLISLVDVNYLYVKDKSGYYING,-0.0579
13,HMLLTEETLPQLKQIVDEFPYFQIARMLYLKNLAVLNDIRFSVELKKMSIYVPDRRKLFTLIEGE,0.044
14,HMIMMTLGEKIRSIRKAKGMTQQELAEKLNTTKQTIGKYEKGIVTNLPLFRINELARALSTTPAYLTGW,-1.46
15,HMADYYSILGLTKNATDIEIKSAFRKLAKIYHPDKNPDPNARVLFEHILKAYDTLINPHSRRRYDSL,-1.31
16,HMIEESTVPDLKGKSQEDAIKLLEDANLKYQIVEEESKKIEAGYVISQETDANKKVNAGDTVIIHVST,0.645
17,HMTSPNPLIRSTTPGLETNKKGGIIVDENEMSTRENVFAGGDAVTGAATVILAMGAGKKAAAAIDAKLQN,0.461
18,HMATSNDTQITGSLALRFDGSGDTFTVNVNGDDKLEINTEGTVIYKPLTTAPTYVSGGLFFSSSGDFYVG,0.00147
19,HMTKTSQEDEDIMRHLDELHTRWPFLGQRKLIEELKDQGIQIGRKRLRRLMKVMGIEAIAPK,-2.12
20,HMLANLNKELQNDAALLKQKAQGNSNLLAKIQDVEQQMKQVNTSSASDEAKAKELQTLQRKLTAYKKALA,-0.0577
21,HMQEPIAVPDFINKSAVDVLVNPVFTQNFKLVSEDVYDDKVPEGYIVGQSVKSDTLVQPGTEIVIYV,0.224
22,HMDENTEQESQTVVVPDVTGKSLSEAASILREAGLDYLAEQTGTVVTKQMPLPDAEVLINTTVLLYTDSE,0.143
23,HMKKLTNKQIIFFAEKLAHHSDFASKYSKVGESYEEFAIRLEKELNTPQKVEFYSSYLEKVGFK,-2.54
24,HMSPILTPDQATKAYGKDGVLYIHSNKERTIYIYDVTGRTVRILEAVEGENQINGLEKGIYFLEGQKVAV,-1.36
